Literature values in publication PMC3000922.

Target: integrin β3 cytoplasmic tail (Homo sapiens) (UniProt P05106)
Experiment: SPR

Chain of UniProt P05106 (P05106 742-788): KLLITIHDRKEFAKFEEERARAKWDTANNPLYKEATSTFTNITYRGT

- Kd: 7 µM
Substance: integrin αIIb cytoplasmic tail (from UniProt P08514)
